Data from publication PMC8661717 (Protein Science : A Publication of the Protein Society, 2021).

T1: Pol α catalytic subunit (334-1462), as subunit of the truncated human primosome (human, UniProt P09884 334-1462)
T1 construct: also called DNA polymerase α; catalytic subunit of Pol α
T1 sequence (looked up): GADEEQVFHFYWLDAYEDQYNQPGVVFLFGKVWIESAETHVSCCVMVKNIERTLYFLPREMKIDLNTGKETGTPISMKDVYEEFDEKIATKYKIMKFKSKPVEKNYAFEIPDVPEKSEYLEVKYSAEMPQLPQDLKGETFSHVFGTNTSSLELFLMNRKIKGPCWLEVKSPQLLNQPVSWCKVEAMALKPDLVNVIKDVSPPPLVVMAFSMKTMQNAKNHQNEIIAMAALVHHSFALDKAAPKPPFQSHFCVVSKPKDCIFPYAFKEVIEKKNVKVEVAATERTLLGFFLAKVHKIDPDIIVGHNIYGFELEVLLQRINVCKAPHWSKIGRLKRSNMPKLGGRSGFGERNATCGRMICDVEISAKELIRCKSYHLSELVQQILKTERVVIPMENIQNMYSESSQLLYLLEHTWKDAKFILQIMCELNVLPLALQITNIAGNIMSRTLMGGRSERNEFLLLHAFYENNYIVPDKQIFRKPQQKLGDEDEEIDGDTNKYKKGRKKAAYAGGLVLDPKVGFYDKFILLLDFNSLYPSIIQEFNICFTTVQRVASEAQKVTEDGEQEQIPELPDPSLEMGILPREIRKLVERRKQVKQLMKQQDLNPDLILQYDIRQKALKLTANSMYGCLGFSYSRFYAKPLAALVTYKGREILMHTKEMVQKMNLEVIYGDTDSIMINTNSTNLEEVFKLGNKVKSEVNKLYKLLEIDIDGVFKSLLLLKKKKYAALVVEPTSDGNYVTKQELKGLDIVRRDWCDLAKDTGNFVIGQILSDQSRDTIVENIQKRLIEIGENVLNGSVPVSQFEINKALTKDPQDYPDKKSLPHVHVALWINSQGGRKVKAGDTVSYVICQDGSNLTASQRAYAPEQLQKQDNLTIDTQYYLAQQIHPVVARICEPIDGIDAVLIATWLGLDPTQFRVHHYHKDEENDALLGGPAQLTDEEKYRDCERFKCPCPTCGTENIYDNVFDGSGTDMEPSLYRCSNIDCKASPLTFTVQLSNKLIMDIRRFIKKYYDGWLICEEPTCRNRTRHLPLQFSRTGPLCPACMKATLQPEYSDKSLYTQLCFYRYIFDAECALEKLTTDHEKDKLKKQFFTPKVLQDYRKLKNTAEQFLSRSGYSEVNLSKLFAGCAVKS

B1: His6-MBP-tagged SARS-CoV nonstructural protein 1 (nsp1), full length (natural protein)
chain: MESLVLGVNEKTHVQLSLPVLQVRDVLVRGFGDSVEEALSEAREHLKNGTCGLVELEKGVLPQLEQPYVFIKRSDALSTNHGHKVVELVAEMDGIQYGRSGITLGVLVPHVGETPIAYRNVLLRKNGNKGAGGHSYGIDLKSYDLGDELGTDPIEDYEQNWNTKHGSGALRELTRELNGG
B2: His6-MBP-tagged SARS-CoV-2 nsp1 middle domain (13-127) (domain or fragment)
chain: HVQLSLPVLQVRDVLVRGFGDSVEEVLSEARQHLKDGTCGLVEVEKGVLPQLEQPYVFIKRSDARTAPHGHVMVELVAELEGIQYGRSGETLGVLVPHVGEIPVAYRKVLLRKNG
B3: SARS-CoV nsp1 (13-127), His6-MBP tag cleaved (domain or fragment)
chain: HVQLSLPVLQVRDVLVRGFGDSVEEALSEAREHLKNGTCGLVELEKGVLPQLEQPYVFIKRSDALSTNHGHKVVELVAEMDGIQYGRSGITLGVLVPHVGETPIAYRNVLLRKNG
B4: His6-MBP-tagged SARS-CoV nsp1 middle domain (13-127) (domain or fragment)
chain: B3 chain

Columns and labels:
Settings in all cases: both partners purified
[1] = target: T2, Full-length human primosome (DNA polymerase α–primase complex) (human, UniProt P09884 1-1462; Q14181 1-598; P49642 1-420; P49643 1-509); test: pull-down
T2 construct: also called Pol α–primase; full-length primosome
T2 sequence (Q14181 whole entry, chain 2 of 3): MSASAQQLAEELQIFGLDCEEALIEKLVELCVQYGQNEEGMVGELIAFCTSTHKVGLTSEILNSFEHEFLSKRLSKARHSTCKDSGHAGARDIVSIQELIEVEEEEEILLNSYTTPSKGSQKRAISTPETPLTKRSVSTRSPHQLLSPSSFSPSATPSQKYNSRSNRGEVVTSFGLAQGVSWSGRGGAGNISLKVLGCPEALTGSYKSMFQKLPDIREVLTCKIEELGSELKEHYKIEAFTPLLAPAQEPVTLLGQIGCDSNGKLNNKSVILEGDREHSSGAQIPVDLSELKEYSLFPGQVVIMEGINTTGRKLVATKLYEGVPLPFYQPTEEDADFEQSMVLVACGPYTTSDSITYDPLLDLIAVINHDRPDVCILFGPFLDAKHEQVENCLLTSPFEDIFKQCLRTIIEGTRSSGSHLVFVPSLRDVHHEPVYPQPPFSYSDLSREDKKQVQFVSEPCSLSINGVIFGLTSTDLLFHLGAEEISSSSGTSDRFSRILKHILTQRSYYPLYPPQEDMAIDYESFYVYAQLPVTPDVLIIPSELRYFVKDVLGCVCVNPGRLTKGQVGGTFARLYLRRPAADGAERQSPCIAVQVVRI
T2 sequence (P49642 whole entry, chain 3 of 3): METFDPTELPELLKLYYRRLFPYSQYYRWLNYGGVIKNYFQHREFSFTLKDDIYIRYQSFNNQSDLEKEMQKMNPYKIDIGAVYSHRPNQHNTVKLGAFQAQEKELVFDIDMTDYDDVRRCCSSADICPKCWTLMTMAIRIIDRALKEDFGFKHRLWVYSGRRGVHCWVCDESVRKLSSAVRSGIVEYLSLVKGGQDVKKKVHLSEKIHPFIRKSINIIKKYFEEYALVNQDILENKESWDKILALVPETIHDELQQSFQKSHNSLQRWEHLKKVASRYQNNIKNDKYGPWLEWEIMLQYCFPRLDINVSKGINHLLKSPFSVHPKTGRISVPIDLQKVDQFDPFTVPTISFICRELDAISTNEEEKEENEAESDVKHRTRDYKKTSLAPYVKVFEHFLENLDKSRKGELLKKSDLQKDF
T2 sequence (P49643 whole entry, chain 4 of 3): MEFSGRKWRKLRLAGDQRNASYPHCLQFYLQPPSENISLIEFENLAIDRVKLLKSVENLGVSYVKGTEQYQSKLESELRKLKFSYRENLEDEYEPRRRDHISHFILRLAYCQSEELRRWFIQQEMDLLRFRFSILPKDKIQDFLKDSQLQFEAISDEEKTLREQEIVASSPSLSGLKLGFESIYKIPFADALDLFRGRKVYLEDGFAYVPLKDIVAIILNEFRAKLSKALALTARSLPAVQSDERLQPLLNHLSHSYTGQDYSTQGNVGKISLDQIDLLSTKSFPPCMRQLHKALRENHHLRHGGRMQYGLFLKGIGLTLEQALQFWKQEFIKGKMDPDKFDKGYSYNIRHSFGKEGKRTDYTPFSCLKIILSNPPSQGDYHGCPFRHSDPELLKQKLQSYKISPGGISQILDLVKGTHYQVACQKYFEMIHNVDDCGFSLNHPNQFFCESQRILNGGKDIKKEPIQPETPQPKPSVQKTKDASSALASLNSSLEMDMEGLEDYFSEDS

[2] = target: T3, Truncated human primosome (Pol α 334-1462; B subunit 149-598; PriS 1-420; PriL 1-509) (human, UniProt P09884 334-1462; Q14181 149-598; P49642 1-420; P49643 1-509); test: pull-down
T3 construct: also called truncated primosome; Pol α–primase
T3 sequence (Q14181 149-598, chain 2 of 3): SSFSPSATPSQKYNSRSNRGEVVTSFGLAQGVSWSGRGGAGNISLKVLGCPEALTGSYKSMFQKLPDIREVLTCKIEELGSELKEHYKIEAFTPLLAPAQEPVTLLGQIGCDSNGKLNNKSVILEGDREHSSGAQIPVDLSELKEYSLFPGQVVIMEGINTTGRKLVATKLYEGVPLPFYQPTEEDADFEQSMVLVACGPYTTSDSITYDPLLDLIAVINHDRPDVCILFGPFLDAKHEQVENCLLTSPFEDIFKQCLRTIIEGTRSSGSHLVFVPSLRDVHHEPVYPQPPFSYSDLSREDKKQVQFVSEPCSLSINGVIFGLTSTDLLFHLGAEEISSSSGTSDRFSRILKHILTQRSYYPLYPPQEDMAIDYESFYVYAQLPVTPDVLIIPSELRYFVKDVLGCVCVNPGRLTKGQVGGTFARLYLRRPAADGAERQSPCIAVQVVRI
T3 sequence (P49642 whole entry, chain 3 of 3, the tested form may be a part): as the sequence (P49642 whole entry, chain 3 of 3) above
T3 sequence (P49643 whole entry, chain 4 of 3, the tested form may be a part): as the sequence (P49643 whole entry, chain 4 of 3) above

[3] = target: T3, Truncated human primosome (Pol α …); test: cryo-EM structure
[4] = target: T1, Pol α catalytic subunit (334-1462), as …; test: cryo-EM structure

Binder | binding result [1] | binding result [2] | binding result [3] | binding result [4]
B1 | binds | binds |  | 
B2 |  | binds |  | 
B3 |  |  | binds | binds
B4 |  | binds |  | 
